Test results reported in patent US20050118638A1.

What was measured:
[1] = biological target: TSH receptor (detergent solubilised TSH receptor preparation) (UniProt P16473); experiment: 125I-TSH, TSHR coated tubes; 20 µg/ml
[2] = biological target: TSH receptor (detergent solubilised TSH receptor preparation) (UniProt P16473); experiment: 125I-TSH, TSHR coated tubes; 200 µg/ml
[3] = biological target: TSH receptor (detergent solubilised TSH receptor preparation) (UniProt P16473); experiment: solubilised TSHR, PEG method; IgG 100 µg/ml; competitor 125I-16E5 Fab

Sequence of TSH receptor (detergent solubilised TSH receptor preparation) (P16473 21-764 limits assumed): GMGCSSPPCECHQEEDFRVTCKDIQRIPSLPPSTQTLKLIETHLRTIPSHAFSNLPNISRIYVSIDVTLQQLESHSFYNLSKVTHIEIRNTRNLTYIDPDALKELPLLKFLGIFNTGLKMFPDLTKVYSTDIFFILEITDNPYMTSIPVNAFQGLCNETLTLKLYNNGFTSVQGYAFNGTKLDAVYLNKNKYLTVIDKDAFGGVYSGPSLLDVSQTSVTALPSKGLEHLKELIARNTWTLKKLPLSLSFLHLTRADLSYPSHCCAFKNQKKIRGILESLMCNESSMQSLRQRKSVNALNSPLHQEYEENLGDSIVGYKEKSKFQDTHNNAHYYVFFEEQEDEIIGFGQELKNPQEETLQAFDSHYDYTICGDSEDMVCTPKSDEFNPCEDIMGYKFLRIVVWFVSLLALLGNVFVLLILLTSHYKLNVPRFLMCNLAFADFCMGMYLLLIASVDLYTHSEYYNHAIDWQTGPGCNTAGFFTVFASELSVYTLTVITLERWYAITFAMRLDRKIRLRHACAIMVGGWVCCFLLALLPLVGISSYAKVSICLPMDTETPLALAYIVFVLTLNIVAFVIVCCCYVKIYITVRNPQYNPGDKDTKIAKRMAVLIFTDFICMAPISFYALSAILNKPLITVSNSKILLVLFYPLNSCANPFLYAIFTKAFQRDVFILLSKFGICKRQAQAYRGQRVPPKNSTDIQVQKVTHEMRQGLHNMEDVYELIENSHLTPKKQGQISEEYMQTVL

B1: 3B3 IgG (antibody, V domains shown)
VH: DVQLQQPGAELVKPGASVKLSCTTSGVNIKDTYMHWMKQRPEQGLEWIGRIDPANGNTKYDPKFRGKATITADTSSNTVYVQLRSLTSEDTAVYYCAYDGYWGQGTLVTVSA
VL: NIVMTQTPASLAVSLGQRATISCRASESVDSYGNNFMHWYQQKPGQSPRLLIYRASNLESGIPARFSGSGSRTDFTLTTNPVEADDVATYYCQQSHKDPLTFGAGTKLELK
B1 was tested, and the % inhibition of TSH binding [1] was 6.1%, the % inhibition of TSH binding [2] was 30.7% and the % inhibition of 125I-16E5 Fab binding [3] was 8.8%.
